Results as given in patent CN116082499A (DONGGUAN PENGZHI BIOTECHNOLOGY CO LTD, dated 2023).
Substitutions are numbered along the chain they refer to.

T1: DENV-IV抗原(一种NS1蛋白，购自菲鹏) (dengue virus serotype 4 (DENV-IV), UniProt P09866 775-1126, limits assumed)
T1 construct: also called DENV-IV antigen
T1 sequence (looked up): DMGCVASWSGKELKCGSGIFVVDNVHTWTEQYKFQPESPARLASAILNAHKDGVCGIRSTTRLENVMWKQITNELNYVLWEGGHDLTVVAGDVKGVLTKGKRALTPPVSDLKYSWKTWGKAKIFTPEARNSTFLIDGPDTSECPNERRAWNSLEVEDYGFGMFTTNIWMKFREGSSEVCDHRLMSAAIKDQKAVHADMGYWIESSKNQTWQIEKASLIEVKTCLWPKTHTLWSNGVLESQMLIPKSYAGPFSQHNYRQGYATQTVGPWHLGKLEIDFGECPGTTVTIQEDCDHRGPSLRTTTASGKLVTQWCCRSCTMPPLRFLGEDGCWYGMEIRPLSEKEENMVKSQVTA

B1: DF-5M32RMb1 (antibody, mouse IgG1, kappa, V domains shown)
VH: QVQLQQSGAELARPGASVKLSCKASGYTFINYWMQWVKQRPGQGLEWIGAIYPGDGDTRYTQNFKGKAALTADKSSSTAYMQLSSLASEDSAVYYCATGTEGILDYWGQGTSVTVSS
VL: DAVMTQTPLTLSVLIGQPASLSCKSSQSLLESDGKTYLNWLFQRPGQSPKRLIYLVSKLESGVPDRFTGSGSGTEFTLKISRVEAEDLGVYYCWQATHHPLTFGTGTNLELKR
notes: also called Anti-DF 5M32; Anti-DF 5M32单克隆抗体 (recombinant)
B2: DF-5M32RMb4 (antibody, mouse IgG1, kappa, V domains shown)
VH: B1 VH with I103L
VL: B1 VL
notes: also called DF-8F13RMb4
B3: DF-5M32RMb2 (antibody, mouse IgG1, kappa, V domains shown)
VH: B1 VH with I30L, I103L
VL: B1 VL
notes: also called DF-8F13RMb2
B4: DF-5M32RMb3 (antibody, mouse IgG1, kappa, V domains shown)
VH: B1 VH with I30L
VL: B1 VL
notes: also called DF-8F13RMb3

These binders were tested against T2, DENV抗原 (DENV阳性血清) (dengue virus (DENV), serotype ) (assay: sandwich ELISA, antibody at 1.5625 ng/ml captured on goat anti-mouse IgG, DENV-positive serum, HRP-labelled DENV mAb).
T2 construct: also called DENV antigen in DENV-positive serum

**Q.** Which “OD (450nm, 参考630nm)” value does the source give for B1 here?
**A.** 0.654 OD

**Q.** For B2, which “OD (450nm, 参考630nm)” value is on record?
**A.** 0.631 OD

**Q.** How did the “OD (450nm, 参考630nm)” value turn out when B3 was run?
**A.** 0.603 OD

**Q.** With B4 as the binder, how does the “OD (450nm, 参考630nm)” value read?
**A.** 0.622 OD

What follows are binders tested against T2, DENV抗原 (DENV阳性血清) (assay: sandwich ELISA, antibody at 0 ng/ml (blank without antibody), goat anti-mouse IgG, DENV-positive serum, HRP-labelled DENV mAb).

**Q.** How did the “OD (450nm, 参考630nm)” value turn out when B1 was run?
**A.** 0.039 OD

**Q.** Which “OD (450nm, 参考630nm)” value does the source give for B2 here?
**A.** 0.032 OD

**Q.** With B3 as the binder, how does the “OD (450nm, 参考630nm)” value read?
**A.** 0.031 OD

**Q.** Which “OD (450nm, 参考630nm)” value does the source give for B4 here?
**A.** 0.043 OD

What follows are binders tested against T2, DENV抗原 (DENV阳性血清) (assay: sandwich ELISA, antibody at 0.78125 ng/ml captured on goat anti-mouse IgG, DENV-positive serum, HRP-labelled DENV mAb).

**Q.** B1 was tested. Which “OD (450nm, 参考630nm)” value did it give?
**A.** 0.489 OD

**Q.** With B2 as the binder, how does the “OD (450nm, 参考630nm)” value read?
**A.** 0.482 OD

**Q.** With B3 as the binder, how does the “OD (450nm, 参考630nm)” value read?
**A.** 0.471 OD

**Q.** Which “OD (450nm, 参考630nm)” value does the source give for B4 here?
**A.** 0.479 OD

These binders were tested against T2, DENV抗原 (DENV阳性血清) (assay: sandwich ELISA, antibody at 12.5 ng/ml captured on goat anti-mouse IgG, DENV-positive serum, HRP-labelled DENV mAb).

**Q.** How did the “OD (450nm, 参考630nm)” value turn out when B1 was run?
**A.** 2.1 OD

**Q.** Which “OD (450nm, 参考630nm)” value does the source give for B2 here?
**A.** 2.01 OD

**Q.** Which “OD (450nm, 参考630nm)” value does the source give for B3 here?
**A.** 2.04 OD

**Q.** Which “OD (450nm, 参考630nm)” value does the source give for B4 here?
**A.** 1.97 OD

What follows are binders tested against T1, DENV-IV抗原(一种NS1蛋白，购自菲鹏) (assay: not given).

**Q.** B1 was tested. Which Kd did it give?
**A.** 59.6 nM

**Q.** And the koff?
**A.** 0.00128 s⁻¹

**Q.** What about the kon of the same binder?
**A.** 21400 M⁻¹ s⁻¹

**Q.** Which results are given for B2?
**A.** Kd: 52.9 nM; koff: 0.00176 s⁻¹; kon: 33200 M⁻¹ s⁻¹

**Q.** With B3 as the binder, how does the Kd read?
**A.** 57.8 nM

**Q.** What about the koff of the same binder?
**A.** 0.00184 s⁻¹

**Q.** And the kon?
**A.** 31900 M⁻¹ s⁻¹

**Q.** For B4, which Kd is on record?
**A.** 63.6 nM

**Q.** And the koff?
**A.** 0.00186 s⁻¹

**Q.** And the kon?
**A.** 29300 M⁻¹ s⁻¹

These binders were tested against T2, DENV抗原 (DENV阳性血清) (assay: sandwich ELISA, antibody at 6.25 ng/ml captured on goat anti-mouse IgG, DENV-positive serum, HRP-labelled DENV mAb).

**Q.** B1 was tested. Which “OD (450nm, 参考630nm)” value did it give?
**A.** 1.52 OD

**Q.** For B2, which “OD (450nm, 参考630nm)” value is on record?
**A.** 1.49 OD

**Q.** B3 was tested. Which “OD (450nm, 参考630nm)” value did it give?
**A.** 1.47 OD

**Q.** Which “OD (450nm, 参考630nm)” value does the source give for B4 here?
**A.** 1.5 OD

Each binder was assayed against T2, DENV抗原 (DENV阳性血清) (assay: sandwich ELISA, antibody at 3.125 ng/ml captured on goat anti-mouse IgG, DENV-positive serum, HRP-labelled DENV mAb).

**Q.** With B1 as the binder, how does the “OD (450nm, 参考630nm)” value read?
**A.** 0.963 OD

**Q.** How did the “OD (450nm, 参考630nm)” value turn out when B2 was run?
**A.** 0.923 OD

**Q.** With B3 as the binder, how does the “OD (450nm, 参考630nm)” value read?
**A.** 0.96 OD

**Q.** For B4, which “OD (450nm, 参考630nm)” value is on record?
**A.** 0.952 OD
